Data on one molecule can be found in patent publication US20100028952A1, “FERMENTATION AND PURIFICATION OF ACTINOMADURA CHROMOPROTEIN AND RELATED SPECIES” (WYETH, priority 2006, published 2010).

In one data set the target is T1, Human PGP (MDR1) (Homo sapiens, UniProt P08183).
T1 construct: cells expressing clinically relevant levels of MDR1 (KB-8-5 cells) remain sensitive to the complex; endogenous in cells; host or cells: KB (P-GP -), KB-8-5 (+), KB-V-1 (+++)
In words: Transport by P-GP (MDR-1). Conditions: result in words. It is filed as cell-based. From the text:
Human PGP (MDR1) is an ATP-dependent efflux pump which is capable of transporting many drugs across cell membranes. High level expression of this protein has been linked to multiple drug resistance of tumors. […] The protein component of the chromoprotein probably protects the chromophore from drug efflux mediated by MDR1, and may be responsible for the beneficial antitumor effects in colon cell lines which often express MDR1.

The next data set deals with SW620. The data set can be described thus: Potency against human tumor cell lines. The following applies: SW620, Colon. It is filed as cell-based.
The subject of data set [1] is histones H1, H2A, H2B, H3, and H4. The data set can be described thus: Specificity of protein digestion by the chromoprotein. It is filed as biochemical. Conditions: myelin basic protein, bovine serum albumin.
The subject of a further data set is BT474. In words: Potency against human tumor cell lines. The following applies: BT474, Breast. It is filed as cell-based.
In the next data set the test system is Supercoiled φX174 DNA. In words: DNA cleavage assay, gel electrophoresis. It is filed as biochemical. The method, then:
Supercoiled φX174 DNA was incubated with various concentrations of the 21G792 chromoprotein and analyzed by gel electrophoresis. […] Nicked refers to single strand breaks in the DNA and linear refers to double strand breaks.

Another data set concerns histone H1 in HeLa cells. In words: Digestion of histone H1 in HeLa cells, immunoblot. Conditions: HeLa cells incubated overnight at 37° C.; anti-histone H1 immunoblot. It is filed as cell-based. The method, then:
To study whether the digestion of histones by the chromoprotein occurs in intact cells, HeLa cells were incubated with compounds overnight at 37° C. Cell lysates were analysed by SDS-PAGE and protein immunoblotting using anti-histone H1 antibodies (Santa Cruz Biotechnologies). […] This activity can contribute to antitumor effects by digesting histones in chromatin, making the DNA more accessible for cleavage. This appears to be a unique activity of the chromoprotein enediynes.

Data set [2] in a line: Toxicity of the chromoprotein in nude mice. It is filed as in vivo. The following applies: except for bone marrow suppression. How it is done: 21G792 chromoprotein is well-tolerated in nude mice. Specifically, saline control vehicle or the chromoprotein in various doses was administered intravenously to six nude mice on days 1, 5, and 9.
Another data set has as its system HN5. In words: Potency against human tumor cell lines. It is filed as cell-based. Conditions: HN5, Head & Neck.
The subject of a further data set is MDA-MB-361. In words: Potency against human tumor cell lines. It is filed as cell-based. Conditions: MDA-MB-361, Breast.
For a further data set, the system named is p21−/− cells. In words: In vitro anti-tumor activity, isogenic pair of cell lines. It is filed as cell-based. The following applies: p21−/− isogenic cell line; Mean + SD, n = 3. The text has this: (§1) The p53/p21 checkpoint monitors the integrity of the genome and blocks cell cycle progression in the event of DNA damage. Disruption of the checkpoint by deletion of the p21 gene results in failure to arrest in response to DNA damage ultimately leading to cell death through apoptosis. Since loss of this checkpoint is a hallmark of cancer cells, an isogenic pair of cell lines, wherein one pair of the cell line (p21+/+) has an intact p21 gene and one member (p21−/−) has a deletion in the p21 gene, can be used to screen for potential anti-tumor compounds by identifying molecules that preferentially induce apoptosis in p21-deficient cells.
(§2) The Actinomadura sp. 21G792 chromoprotein was added to an isogenic pair of cell lines (p21+/+ and p21−/−).

A further data set deals with p21+/+ cells. Described as above. It is filed as cell-based. Conditions: p21+/+ isogenic cell line; Mean + SD, n = 3.
Description: as §1, §2

For data set [3], the system named is p53/p21 checkpoint in HCT116 (p21+/+ and p21−/−) cells. The data set can be described thus: Induction of the G1/S checkpoint, protein immunoblot. It is filed as cell-based, human. The text has this: HCT116 (p21+/+ and p21−/−) cells were exposed to the chromoprotein at various concentrations. […] Activation of the DNA damage checkpoint by the Actinomadura sp. […] 21G792 chromoprotein as shown by the cleavage of poly ADP ribose […] (PARP) (FIG. 23B). This is consistent with the lower IC50 value in the p21−/− cells.

In the next data set the test system is LoVo. In words: Potency against human tumor cell lines. It is filed as cell-based. The following applies: Colon.

T1 sequence (P08183 whole entry): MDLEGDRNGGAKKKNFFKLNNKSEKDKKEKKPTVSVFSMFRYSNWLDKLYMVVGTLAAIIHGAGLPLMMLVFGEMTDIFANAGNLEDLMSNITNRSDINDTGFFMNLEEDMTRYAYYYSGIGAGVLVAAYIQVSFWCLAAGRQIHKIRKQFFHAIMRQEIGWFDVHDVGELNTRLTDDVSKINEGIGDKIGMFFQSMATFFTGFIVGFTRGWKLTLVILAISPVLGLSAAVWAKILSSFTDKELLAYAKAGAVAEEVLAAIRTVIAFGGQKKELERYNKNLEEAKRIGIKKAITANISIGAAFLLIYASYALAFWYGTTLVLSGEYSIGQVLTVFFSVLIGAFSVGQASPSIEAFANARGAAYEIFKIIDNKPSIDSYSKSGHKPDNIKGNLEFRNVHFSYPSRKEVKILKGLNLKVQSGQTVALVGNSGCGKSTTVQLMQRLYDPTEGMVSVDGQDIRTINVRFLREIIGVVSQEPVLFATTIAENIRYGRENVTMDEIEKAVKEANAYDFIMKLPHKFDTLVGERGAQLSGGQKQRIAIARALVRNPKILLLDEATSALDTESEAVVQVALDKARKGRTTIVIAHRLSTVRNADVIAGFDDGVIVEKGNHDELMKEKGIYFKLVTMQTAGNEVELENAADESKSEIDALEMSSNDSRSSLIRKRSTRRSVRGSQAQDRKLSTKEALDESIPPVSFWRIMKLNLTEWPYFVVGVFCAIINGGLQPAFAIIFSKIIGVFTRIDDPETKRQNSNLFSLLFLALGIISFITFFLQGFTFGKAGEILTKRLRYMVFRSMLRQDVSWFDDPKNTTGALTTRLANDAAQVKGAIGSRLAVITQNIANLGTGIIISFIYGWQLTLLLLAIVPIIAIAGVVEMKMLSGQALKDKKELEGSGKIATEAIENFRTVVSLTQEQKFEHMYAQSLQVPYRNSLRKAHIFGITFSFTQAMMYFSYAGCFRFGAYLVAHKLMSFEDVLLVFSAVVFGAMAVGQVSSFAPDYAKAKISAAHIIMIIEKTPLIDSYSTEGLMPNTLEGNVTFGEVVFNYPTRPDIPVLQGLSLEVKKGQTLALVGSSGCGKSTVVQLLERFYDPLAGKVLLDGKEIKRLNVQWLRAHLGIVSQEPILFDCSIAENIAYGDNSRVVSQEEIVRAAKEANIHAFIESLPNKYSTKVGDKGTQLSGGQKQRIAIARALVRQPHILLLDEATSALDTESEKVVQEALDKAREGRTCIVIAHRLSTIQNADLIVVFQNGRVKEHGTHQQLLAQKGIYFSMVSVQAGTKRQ

B1: Actinomadura sp. 21G792 chromoprotein: non-covalent complex of an apoprotein and a chromophore comprising a nine-membered enediyne, produced by Actinomadura sp. 21G792 (NRRL 30778) (protein)
chain: DTVTVNYDCVGYPSDIAVTIDAPATAGVGDTATFEVSSVVTTGAPQDLPAGEVVTDMAIVVGGAQSGTITASGLTNEATPAGQPVNMVGGEAQITFTSAGSVTFTPSTTTQVDNGAQCTVVGEAPVGATTVVS
Consider B1, for which the MDR1 substrate entry in the data set with Human PGP (MDR1) is on record as “poor MDR1 substrate”. Besides, the IC50 is 2 µg/mL in the data set on SW620; 47 µg/mL in the data set on BT474; 4 µg/mL in the data set on HN5; 5 µg/mL in the data set on MDA-MB-361; 7 + 2 μg/ml in the data set with p21−/− cells; 90 + 32 μg/ml in the data set on p21+/+ cells. Also, the IC50 in the data set with LoVo worked out at 2 µg/mL. Moreover, the “cleavage of other proteins” value in data set [1] is reported as “cleaves other basic proteins such as myelin basic protein, but not neutral/acidic proteins such as bovine serum albumin”. In addition, the “requirement of a reducing agent for DNA cleavage” value in the data set on Supercoiled φX174 DNA (dithiothreitol, DTT) was “did not require a reducing agent”. Also, the DNA cleavage result in the data set with Supercoiled φX174 DNA (various concentrations, reaction progressed over 24 hours) was “induced single strand breaks and double strand breaks”. Also, the “histone H1 in cells” value in the data set with histone H1 in HeLa cells was “reduced histone H1 in cells”. Besides, the “tolerability in nude mice” value in data set [2] is recorded as “well-tolerated”. In addition, in [3] (HCT116 p21+/+ and p21−/−), the “induction of the p21 protein” value was “Induction of the p21 protein was seen in the p21+/+ cells only”. Further, the “induction of apoptosis (PARP cleavage)” value in [3] (p21−/− compared with p21+/+ cells) was “induction of apoptosis was preferentially observed in p21−/− cells compared with p21+/+ cells”.
